This is an account of results in patent publication US20140088006A1, “Stem Cell Mobilization and Tissue Repair and Regeneration” (Wellstat Therapeutics Corporation, priority 2011, published 2014).

Test [1] relates to hematopoietic stem cells (HSC) and their hematopoietic progenitors (HPC). In words: CFU-GM / CFU-GEMM colony assay of peripheral blood mononuclear cells after single subcutaneous injection. It is filed as in vivo, C57Bl6 mice. Conditions: s.c. 5 mg/kg. The procedure: (§1) C57Bl6 male mice, from 8 weeks to 4 month of age, from Harlan were used. Mice received subcutaneous injections of saline, Compound X (50 μg/kg) or Compound X (250 μg/kg). After 1 and 4 hours, mice were anesthetized and blood was collected through the orbital sinus with heparinized capillary tubes. 20 μl of blood was removed from each tube for WBC counts;
Remaining blood from each group was pooled and mononuclear cells were isolated by density gradient separation. To enumerate HSC and HPC in peripheral blood cells were washed, counted plated in semi-solid Methylcellulose MC3434 (Stem cell technology) at 100,000 per dish (5 dishes/group) and placed in CO2 incubator at 37° C. Colony-forming unit-granulocyte erythroid macrophage megakaryocyte (CFU-GEMM) and Colony-forming unit-granulocyte macrophage (CFU-GM) were detected under inverted microscope 7 and 10 days after.
(§2) In this experiment, C57Bl6 mice received subcutaneous injections of PBS, Compound X (250 μg/kg) or AMD3100 (5 mg/kg). After 1 hr blood was collected through the orbital sinus with heparinized capillary tubes. Blood from each group was pooled, counted and mononuclear cells were isolated by density gradient separation. Cells were washed, counted and plated at 100,000 per dish (5 dishes/group) for CFU-GEMM and CFU-GM colonies. CFU-GEMM colonies were scored on day 14, while CFU-GM colonies on day 7 after plating in MC3434 (Stem cell Technology).

Test [2] deals with white blood cells in peripheral blood. In words: White blood cell count in peripheral blood after single subcutaneous injection. It is filed as in vivo, C57Bl6 mice. Conditions: s.c. 5 mg/kg; 1 hr; pooled blood. The procedure:
as §1, §2

For another test, the system named is peripheral blood cells. In words: FACS phenotype of peripheral blood cells after single subcutaneous injection. It is filed as in vivo, C57Bl6 mice. Conditions: for Phenotype Lin−/Sca-1+ / Phenotype Lin−/Sca-1−: 5 mg/kg, mononuclear cells. How it is done: C57Bl6 male mice, from 8 weeks to 4 month of age, from Harlan were used. […] 20 μl of blood was removed from each tube for WBC counts;
200 μl of blood was used for FACS analysis of cells phenotypes: briefly 50 μl of blood was transferred to a 15 ml polypropylene tube containing 1 ml ACK lysis buffer and the tubes left at room temperature for 6 minutes. 50 μl of a 1:50 dilution of Fc block (Pharmingen 01241A) along with 2 ul of anti-CD19FITC (Pharmingen 09654A) and 2 μl of anti-Gr-1PE (Pharmingen 01215A) was added and the tubes left at room temperature for 30 minutes protected from light. The cells were washed with 3 ml FACS buffer, resuspended in 300 μl FACS buffer and kept on ice, protected from light until acquired on the FACSCalibur.
For flow cytometry analysis the blood was stained with antibodies and a phenotype determined by FACS as described before. In addition to the whole blood FACS phenotyping, Ficolled blood was also stained to monitor the Lin−/Sca+ phenotype. The cells were washed with 3 ml FACS buffer, resuspended in 300 μl FACS buffer and kept on ice, protected from light until acquired on the FACSCalibur

In test [3] the test system is human umbilical cord blood CD34+ cells. Description: Transwell migration of CD34+ cells toward SDF-1α. It is filed as cell-based. Conditions: 10 μg/mL; control and Compound X treated cells; 100 ng/mL SDF-1α; 4 hours. How it is done: CD34^+ cell migration toward 100 ng/mL SDF-1α in a Corning Transwell device (24 well format, 5 μm pore size, polycarbonate membrane) was studied with and without Compound X and in the presence or absence of either anti-CXCR4 antibody or the CXCR4 antagonist AMD3100.
The CD34^+ population of cells from human umbilical cord blood was obtained from Lonza, defrosted and expanded ex vivo with cytokine cocktail for 6 days according to standard procedures. Briefly, 10 wells of two 12 well dishes were seeded at a density of 8×10^4 cells per well in 2 mL of CellGenix serum free growth medium (SCGM). Cells were allowed to expand in a 37° C. incubator (5% CO2, 86% RH) for 6 days. During the expansion, the 10 wells of one of the two plates received treatments of Compound X to a final concentration of 5 ng/mL (10 μL from freshly prepared 1 μg/mL stock in SCGM) at 24 hours and 72 hours after initiation of the culture.
3 hours prior to the start of the migration assay, both control and Compound X expanded cells were pulsed with either 0, 5 ng/mL or 5 μg/mL Compound X. Migration assay was performed according to the method described (Tavor et al. 2005). Cells were centrifuged for 5 minutes at 1100 RPM and resuspended at a density of 2×10^6 cells/mL in CellGenix SCGM serum free medium containing 1% Fraction V BSA either in the presence or absence of 5 ng/mL or 5 μg/mL Compound X for 3 hours. The feeder tray (bottom) was prepared with 600 μL of serum free SCGM supplemented with 1% BSA in the presence or absence of SDF-1α. All treatments were conducted in triplicate. The wells of the migration chamber (top) received 100 μL of cells from the 2×10^6 cells/mL suspensions, preincubated with 5 ng/mL or 5 μg/mL Compound X or Control. All treatments were conducted in triplicates. The plates were placed in a 37° C. incubator (5% CO2, 86% RH) and cells were allowed to migrate for 4 hours. […]
The cells were thawed at room temperature. […] 150 μL of the resulting cell lysates were transferred to a new 96 well plate and the fluorescence was read on a […] SpectraMax M2 fluorimeter (ex 485, em 538). […]

The next test has as its system HSC and HPC. Description: CFU-GM / CFU-GEMM colony assay after 4 daily injections of G-CSF and Compound X. It is filed as in vivo, mice. Conditions: for CFU-GEMM numbers, MEAN / CFU-GM numbers, MEAN / CFU-GEMM numbers / CFU-GM numbers: 5 μg/mouse each agent s.c. daily for 4 days; for CFU-GEMM numbers / CFU-GM numbers: individual dishes; for Fold increase in number of CFU-GM / Fold increase in number of CFU-Mix (CFU-GEMM): multiple injections, 5 μg/mouse each agent. How it is done:
Compound X and Neupogen (rG-CSF Amgen, lot# P043601) were diluted in PBS. Mice received subcutaneous injections of PBS, Compound X (5 μg/mouse), G-CSF (5 μg/mouse) or Compound X (5 μg/mouse)+G-CSF (5 μg/mouse) for four consecutive days. […] Mononuclear cells were isolated by density gradient separation from pooled blood. […] Blood was also collected and processed on day 8 for colony assay. Results are shown in Tables 10, 11, and 12 and in FIG. 5.

In test [4] the test system is white blood cells in peripheral blood. In words: White blood cell count after 4 daily injections of G-CSF and Compound X. It is filed as in vivo, mice. Conditions: 5 μg/mouse each agent s.c. daily for 4 days, pooled blood. The procedure:
Compound X and Neupogen (rG-CSF Amgen, lot# P043601) were diluted in PBS. Mice received subcutaneous injections of PBS, Compound X (5 μg/mouse), G-CSF (5 μg/mouse) or Compound X (5 μg/mouse)+G-CSF (5 μg/mouse) for four consecutive days. On the last day of injections, 1 hour post injections, blood was collected through the orbital sinus with heparinized capillary tubes. Blood was pooled from 3 mice/group and white blood cell counts were obtained. Mononuclear cells were isolated by density gradient separation from pooled blood. Cells were washed, counted and plated at 100,000 per dish (5 dishes/group) for CFU-mix and CFU-GM colonies. Blood was also collected and processed on day 8 for colony assay. Results are shown in Tables 10, 11, and 12 and in FIG. 5.

Where [5] appears, read: 1 hour, individual dishes, 5 mg/kg.

Values joined by “and” are separate entries in the source; they are usually repeats but may differ in a detail not shown here. Equal entries are not always repeated.

As for `c1cc(CN2CCCNCCNCCCNCC2)ccc1CN1CCCNCCNCCCNCC1` [AMD3100, reference compound], in test [1] (1 hour), the “CFU-GEMM, MEAN” value was 6.2 per 100,000 cells and the “CFU-GM (day 7), MEAN” value is 20.6 per 100,000 cells. Also, in test [1] (setting [5]), the CFU-GEMM is 5 per 100,000 cells and 4 per 100,000 cells (2×) and 11 per 100,000 cells and 7 per 100,000 cells; the “CFU-GM (day 7)” value was 19 per 100,000 cells (3×) and 26 per 100,000 cells and 20 per 100,000 cells. Besides, in test [1] (1 hr), the “number of circulating committed precursors of granulocytes and macrophages—CFU-GM” value is “substantial increase”. Further, the “increase of CFU-GEMM number in peripheral blood” value in test [1] (1 hr, vs PBS) was 6.2 times. Also, the “White blood cell count: Cell Count” value in test [2] came out at 1.14e+07 mL⁻¹. In the test with peripheral blood cells (1-hour), the “Phenotype Lin−/Sca-1+” value amounted to 0.6% and the “Phenotype Lin−/Sca-1−” value came to 2.8%. In addition, in the test with peripheral blood cells (30-min), the “Phenotype Lin−/Sca-1+” value stood at 0.5% and the “Phenotype Lin−/Sca-1−” value is on record as 2.1%. For the same molecule, the “mobilization of lineage negative progenitors” value in the test with peripheral blood cells (s.c. 5 mg/kg, 30 min and 1 hr) is “up to 3 times”. Besides, in test [3], the “CD34+ cell Transwell migration toward SDF-1α” value was “strong inhibition”.

B1: G-CSF: Neupogen (rG-CSF Amgen), most common mobilizing agent for clinical uses (protein, chains of the INN, looked up)
chain: MTPLGPASSLPQSFLLKCLEQVRKIQGDGAALQEKLCATYKLCHPEELVLLGHSLGIPWAPLSSCPSQALQLAGCLSQLHSGLFLYQGLLQALEGISPELGPTLDTLQLDVADFATTIWQQMEELGMAPALQPTQGAMPAFASAFQRRAGGVLVASHLQSFLEVSYRVLRHLAQP
B1: in the test with HSC and HPC (Day 4), the “CFU-GEMM numbers, MEAN” value is recorded as 17.6 per 100000 mononuclear cells; the “CFU-GM numbers, MEAN” value is listed as 60.6 per 100000 mononuclear cells; the CFU-GEMM numbers was 20 per 100000 mononuclear cells and 12 per 100000 mononuclear cells (2×) and 15 per 100000 mononuclear cells and 29 per 100000 mononuclear cells; the CFU-GM numbers is 62 per 100000 mononuclear cells and 58 per 100000 mononuclear cells and 63 per 100000 mononuclear cells and 52 per 100000 mononuclear cells and 68 per 100000 mononuclear cells. The “Fold increase in number of CFU-GM” value with HSC and HPC (Day 4) came out at 12 Fold. Also, in the test with HSC and HPC (Day 8), the “CFU-GEMM numbers, MEAN” value is recorded as 4 per 100000 mononuclear cells; the “CFU-GM numbers, MEAN” value is listed as 15.0 per 100000 mononuclear cells; the CFU-GEMM numbers was 5 per 100000 mononuclear cells and 4 per 100000 mononuclear cells (3×) and 3 per 100000 mononuclear cells; the CFU-GM numbers was 12 per 100000 mononuclear cells and 15 per 100000 mononuclear cells and 11 per 100000 mononuclear cells and 21 per 100000 mononuclear cells and 16 per 100000 mononuclear cells. Further, in the test with HSC and HPC (Day 8), the “Fold increase in number of CFU-GM” value is given as 6 Fold and the “Fold increase in number of CFU-Mix (CFU-GEMM)” value turned out to be 5 Fold. Besides, the “Fold increase in number of CFU-Mix (CFU-GEMM)” value in the test on HSC and HPC (Day 4, 1 hr after the last injection) turned out to be 12.5 Fold. Moreover, the “White Blood Cell counts: Cell Count” value in test [4] (Day 4, 1 hour post injection) is 14.6 ×10^6. In test [4] (Day 8), the “White Blood Cell counts: Cell Count” value is recorded as 5.0 ×10^6.
